Data published in US20040258695A1, “Transferrin binding peptides and uses thereof” (priority 2003, published 2004).

Experiments:
[1] = tested on: TbpB N-lobe from M. catarrhalis 4223 (Mbp fusion truncations); test: hTf C-lobe overlapping peptide library probed with HRP-labeled TbpB N-lobe truncations (chemiluminescence); type: binding, Moraxella catarrhalis; conditions: for Binding By Truncations, Segments Included 1-2: TbpB N-lobe segments 1-2; for Binding By Truncations, Segments Included 1: TbpB N-lobe segment 1
Excerpt: (§1) Generation of the overlapping peptide libraries representing human transferrin or the TbpB N-lobe regions from different bacteria was by the ‘SPOTSCAN’ method (Genosys Biotechnologies) (13). Essentially the library consisted of linear peptides 15 amino acids in length that were immobilized onto a cellulose membrane using 9-flurorenylmethoxycarbonyl (Fmoc) amino acid-based synthesis. One membrane was used to generate a library of the C-lobe of hTf consisting of ninety-six 15 amino acid peptides with an 11 amino acid overlap. The overlapping hTf peptide represented amino acids 285 to 679 of the intact hTf protein (accession # NP_001054). The first peptide library representing TbpB N-lobe from M. catarrhalis 4223 (accession #AAC34277) consisted of thirty-two 15 amino acid peptides with a 4 amino acid overlap and included N-lobe amino acids 12-421. The amino acid numbers refer to the amino acids in the predicted mature, processed protein (i.e. the N-terminal cysteine is amino acid 1). The second peptide library representing M. catarrhalis 4223 TbpB N-lobe peptides included amino acids 27-421 but with an 11 amino acid overlap.
TbpB truncations were generated by PCR-based cloning into the pMal expression system (New England BioLabs) as described previously (33). Essentially, amplified tbpB gene segments were subcloned into the pMal-c2 expression vector to generate an in frame fusion with the malE gene. Intact Moraxella catarrhalis 4223 TbpB consisted of amino acids 3-680 where 1 represents the N-terminal cysteine of the mature processed protein. Amino acids 1 and 2 from the mature protein were removed to ease cloning and subsequent expression. The N-terminal half of this gene consisted of amino acids 3 to 421. The truncated TbpB proteins were expressed as maltose binding protein fusions in E. coli ER2507 or ER2508 (for segments 1 and 1-2) and purified by amylose affinity chromatography.
(§2) Two different methods for labeling proteins for library screening were used. Iron loaded human Tf (Sigma) was labeled by chemical cross-linking (using 3-maleimidobenzoic acid-N-hydroxysuccinimide ester) to a beta-galactosidase (β-gal) reporter enzyme as described elsewhere (18). This was used as a probe for calorimetric detection on the composite peptide library. The second method involved conjugating the truncations of the N-lobe of TbpB from M. catarrhalis 4223 to horseradish peroxidase (HRP). HRP conjugated proteins can be detected by chemiluminescence, providing a much more sensitive screen. The truncations were conjugated to HRP using the Linx HRP Rapid Protein Conjugation Kit (Invitrogen). These labeled fusion proteins were then used as a probe for chemiluminescent detection.
For increased sensitivity, the TbpB N-lobe truncations from M. catarrhalis were conjugated to HRP for production and detection of chemiluminescent product. The membrane was rinsed with methanol and washed with 3 changes (5 minutes each) of TBS (0.137 M NaCl, 2.68 mM KCl, 50.4 mM Tris-Base, pH=8.0) on a rocking platform. The membrane was blocked by rocking at room temperature in blocking solution consisting of 20 ml of 0.5% Skim milk powder (BioRad) in TBS for 2.5 hours. The membrane was washed with T-TBS 3 times before being incubated with one of the HRP conjugated truncations diluted 1:1000 in skim milk blocking solution for 4 hours at room temperature. The membrane was then washed again 3 times with T-TBS, drained and incubated with 10 ml of Lumiglo mixture (Kirkegaard and Perry Laboratories) for 5 minutes. It was then exposed to X-omat Blue XB-1 X-Ray film (Kodak) for at least 30 seconds before developing. Positive peptides show up as dark spots on a light background.
To plan the truncation experiments, the N-lobe of M. catarrhalis was divided into seven segments with the identified binding peptides at their junctions. […]

human transferrin (hTf) = target: T1, human transferrin (hTf) (Homo sapiens, UniProt P02787); test: First M. catarrhalis TbpB N-lobe overlapping peptide library screened with β-galactosidase conjugated hTf (colorimetric); type: binding; conditions: 15 mer peptides with 4-amino acid overlap
T1 construct: purchased Sigma
T1 sequence (P02787 20-698): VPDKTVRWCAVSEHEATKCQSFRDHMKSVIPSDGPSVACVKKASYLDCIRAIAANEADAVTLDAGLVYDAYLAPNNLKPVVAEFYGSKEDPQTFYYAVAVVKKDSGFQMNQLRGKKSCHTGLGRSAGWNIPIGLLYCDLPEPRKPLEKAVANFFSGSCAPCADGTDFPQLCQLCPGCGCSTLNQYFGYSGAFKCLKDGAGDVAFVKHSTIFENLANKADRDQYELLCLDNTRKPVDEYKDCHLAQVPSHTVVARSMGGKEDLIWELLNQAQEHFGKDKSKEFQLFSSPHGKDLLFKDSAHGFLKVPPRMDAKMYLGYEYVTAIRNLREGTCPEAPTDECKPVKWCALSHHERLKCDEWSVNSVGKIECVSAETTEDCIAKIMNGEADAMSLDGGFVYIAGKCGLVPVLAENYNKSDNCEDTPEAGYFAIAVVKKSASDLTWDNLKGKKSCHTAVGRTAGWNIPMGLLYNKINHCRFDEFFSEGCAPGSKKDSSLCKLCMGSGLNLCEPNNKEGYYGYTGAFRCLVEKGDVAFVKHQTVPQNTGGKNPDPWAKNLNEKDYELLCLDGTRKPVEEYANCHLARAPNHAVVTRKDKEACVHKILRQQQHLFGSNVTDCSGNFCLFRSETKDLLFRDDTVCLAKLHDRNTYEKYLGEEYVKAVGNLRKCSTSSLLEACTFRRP
Excerpt: as §1, §2
Binding experiments of hTf to the first peptide library was by the calorimetric method (Genosys Biotechnologies). Essentially hTf in blocking solution (10% Blocking buffer (Genosys Biotechnologies), 50 mg/ml sucrose, T-TBS, (0.137 M NaCl, 2.68 mM KCl, 50.4 mM Tris-Base, 0.05% Tween-20, pH8.0) was incubated with the membrane containing the peptide library for 4 hours at room temperature. The membrane was then washed sequentially in T-TBS and PBS before detection of bound beta-galactosidase using 5-bromo-4-chloro-3-indoyl-β-D-galactopyranoside (X-gal). Positive binding was determined by the development of a blue spot.
Initially, an overlapping peptide library representing the TbpB N-lobe of M. catarrhalis was prepared and probed for binding to labeled hTf. This library was comprised of thirty-two 15 mer peptides with a 4-amino acid overlap representing amino acids 12-421 of the mature M. catarrhalis TbpB. The library was screened for binding to β-galactosidase (β-gal) conjugated hTf (β-gal-hTf ) and a number of positive-binding peptides were detected with varying intensity of colored product.

[2] = target: T2, human transferrin (hTf), iron loaded (human, UniProt P02787 20-698); test: TbpB overlapping peptide library probed with labelled hTf as in Example 1
T2 construct: Used as a labelled probe (beta-gal conjugate for library 1, HRP conjugate for library 2 and the solid-phase assay); also called β-gal-hTf; HRP conjugated hTf
T2 sequence (P02787 20-698 limits assumed): as the sequence (P02787 20-698) above

β-galactosidase alone = target: T3, β-galactosidase alone (UniProt P00722 2-1024 = β-galactosidase); test: SPOT peptide library 1 probed with beta-galactosidase alone, colorimetric
T3 construct: Negative control probe for library 1; also called beta-galactosidase
T3 sequence (P00722 2-1024 limits assumed): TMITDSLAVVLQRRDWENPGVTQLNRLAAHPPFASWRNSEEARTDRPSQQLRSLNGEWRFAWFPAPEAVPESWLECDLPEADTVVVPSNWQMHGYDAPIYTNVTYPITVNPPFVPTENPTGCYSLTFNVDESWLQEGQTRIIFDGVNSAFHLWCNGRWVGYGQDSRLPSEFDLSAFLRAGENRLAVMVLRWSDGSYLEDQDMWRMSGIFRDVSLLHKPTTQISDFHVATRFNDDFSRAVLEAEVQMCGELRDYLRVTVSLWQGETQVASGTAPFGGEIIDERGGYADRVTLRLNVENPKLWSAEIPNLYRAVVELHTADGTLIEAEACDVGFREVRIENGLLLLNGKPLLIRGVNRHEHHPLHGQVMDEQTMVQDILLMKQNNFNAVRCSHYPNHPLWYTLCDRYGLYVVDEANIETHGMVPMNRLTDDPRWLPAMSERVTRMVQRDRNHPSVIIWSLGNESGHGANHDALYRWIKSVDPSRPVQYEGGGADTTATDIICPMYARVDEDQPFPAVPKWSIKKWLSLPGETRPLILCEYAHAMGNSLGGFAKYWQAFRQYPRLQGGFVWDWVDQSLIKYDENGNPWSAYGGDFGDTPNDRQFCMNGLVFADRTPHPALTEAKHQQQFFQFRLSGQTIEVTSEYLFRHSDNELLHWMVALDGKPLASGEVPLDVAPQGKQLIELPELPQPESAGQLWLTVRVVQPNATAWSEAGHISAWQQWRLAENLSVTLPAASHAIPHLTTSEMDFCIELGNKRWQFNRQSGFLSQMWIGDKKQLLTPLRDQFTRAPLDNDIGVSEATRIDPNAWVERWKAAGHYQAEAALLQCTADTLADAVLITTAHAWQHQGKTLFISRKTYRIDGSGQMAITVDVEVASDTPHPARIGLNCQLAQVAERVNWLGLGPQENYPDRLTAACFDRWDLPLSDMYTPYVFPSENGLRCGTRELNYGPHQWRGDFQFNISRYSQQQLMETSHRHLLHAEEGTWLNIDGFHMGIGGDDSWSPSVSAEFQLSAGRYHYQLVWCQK

[3] = target: T2, human transferrin (hTf), iron loaded; test: SPOT peptide library 1 of TbpB N-lobe probed with beta-gal-hTf, colorimetric

In the case of “nipmgllynkinhcr (NIPMGLLYNKINHCR; listed as Homo sapiens) [Peptide 41, hTf C-lobe library peptide, domain 2 (Blue)]”, the “Binding By Truncations, Segments Included 1-4” value ([1]; TbpB N-lobe segments 1-4, listed as 13 (Blue)) is reported as “lost reactivity”.

For “agwyygasskdeynr (AGWYYGASSKDEYNR; M. catarrhalis) [Peptide 85]”, the “binding to β-gal-hTf, intensity of colored product” value (“binding to β-gal-hTf, intensity” for short) (human transferrin (hTf)) was “weakly positive”.

chlarapnhavvtrk [Peptide 44] was tested, and the “Binding By Truncations, Segments Included 1-5” value ([1]; TbpB N-lobe segments 1-5, listed as 16 (yellow)) was “lost reactivity”.

In the case of “gpvggvfyngtttak (GPVGGVFYNGTTTAK; M. catarrhalis) [Peptide 80]”, the “binding to β-gal-hTf, intensity” value (human transferrin (hTf)) is reported as “strongly positive”.

In the case of “kylgeeyvkavgnlr (KYLGEEYVKAVGNLR; listed as Homo sapiens) [Peptide 47, hTf C-lobe library peptide, tail (Cyan)]”, the “Binding By Truncations, Segments Included 1-6” value ([1]; TbpB N-lobe segments 1-6, listed as 20 (Cyan)) is reported as “bound all of the peptides except the one”.

With “lcmgsglnlcepnnk (LCMGSGLNLCEPNNK; listed as Homo sapiens) [Peptide 42, hTf C-lobe library peptide, domain 2 (Red)]” the “Binding By Truncations, Segments Included 1-2” value ([1]; listed as 14 (red)) was “lost reactivity”.

With “kksasdltwdnlkgk (KKSASDLTWDNLKGK; listed as Homo sapiens) [Peptide 40, hTf C-lobe library peptide, domain 2 (Green)]” the “Binding By Truncations, Segments Included 1-3” value ([1]; TbpB N-lobe segments 1-3, listed as 12 (green)) was “lost reactivity”.

tdcsgnfclfrsetk [Peptide 46] was tested, and the “Binding By Truncations, Segments Included 1” value ([1]; listed as 19 (brown)) was “loss of binding”.

With “fsnlqdrhkgnvtkt (FSNLQDRHKGNVTKT; M. catarrhalis) [Peptide 90]” the “binding to β-gal-hTf, intensity” value (human transferrin (hTf)) was “strongly positive”.

“fmtdvanrrnrfsev (FMTDVANRRNRFSEV; M. catarrhalis) [Peptide 83]” was tested, and the “binding to β-gal-hTf, intensity” value (human transferrin (hTf)) was “moderately positive”.

With “mgygmalskinlhnr (MGYGMALSKINLHNR; M. catarrhalis) [Peptide 65]” the “binding to β-gal-hTf, intensity” value (human transferrin (hTf)) was “moderately positive”.

For gsnvtdcsgnfclfr [Peptide 45], the “Binding By Truncations, Segments Included 1” value ([1]; listed as 18 (brown)) was “loss of binding”.

For “danihgnrfrgsata (DANIHGNRFRGSATA; M. catarrhalis) [Peptide 92]”, the “binding to β-gal-hTf, intensity” value (human transferrin (hTf)) was “strongly positive”.

With “gyygytgafrclvek (GYYGYTGAFRCLVEK; listed as Homo sapiens) [Peptide 43, hTf C-lobe library peptide, domain 2 (Red)]” the “Binding By Truncations, Segments Included 1-2” value ([1]; listed as 15 (red)) was “lost reactivity”.

B1: N. meningitidis TbpB peptide VIYKGVWHFVTDTKK (peptide)
peptide: VIYKGVWHFVTDTKK
notes: library peptide
B1: binds [2].

B2: M. catarrhalis TbpB N-lobe peptide agwyygasskdeynr (peptide)
peptide: AGWYYGASSKDEYNR
notes: SPOT peptide immobilised on cellulose membrane; also called spot #85
B2: no binding (β-galactosidase alone); binds [3].

B3: N. meningitidis TbpB peptide PSRQLPASGKVIYKG (peptide)
peptide: PSRQLPASGKVIYKG
notes: library peptide
B3: binds [2].

B4: M. catarrhalis TbpB N-lobe peptide danihgnrfrgsata (peptide)
peptide: DANIHGNRFRGSATA
notes: SPOT peptide immobilised on cellulose membrane; also called spot #92
B4: no binding (β-galactosidase alone); binds [3].

B5: M. catarrhalis TbpB N-lobe peptide fsnlqdrhkgnvtkt (peptide)
peptide: FSNLQDRHKGNVTKT
notes: SPOT peptide immobilised on cellulose membrane; also called spot #90
B5: no binding (β-galactosidase alone); binds [3].

B6: M. catarrhalis TbpB N-lobe peptide fmtdvanrrnrfsev (peptide)
peptide: FMTDVANRRNRFSEV
notes: SPOT peptide immobilised on cellulose membrane; also called spot #83
B6: no binding (β-galactosidase alone); binds [3].

B7: M. catarrhalis TbpB N-lobe peptide mgygmalskinlhnr (peptide)
peptide: MGYGMALSKINLHNR
notes: SPOT peptide immobilised on cellulose membrane; also called spot #65
B7: no binding (β-galactosidase alone); binds [3].

B8: N. meningitidis TbpB peptide FYKHAASEKDFSNKK (peptide)
peptide: FYKHAASEKDFSNKK
notes: library peptide
B8: binds [2].

B9: M. catarrhalis TbpB N-lobe peptide gpvggvfyngtttak (peptide)
peptide: GPVGGVFYNGTTTAK
notes: SPOT peptide immobilised on cellulose membrane; also called spot #80
B9: no binding (β-galactosidase alone); binds [3].
